This passage reports Transwell migration of 300-19 pre-B cells stably expressing CCR7 towards graded concentrations of chemokine, 3 h; concentration of maximal migration results from paper PMC8072677.

This experiment addresses CCR7-EGFP (human CCR7 fused to EGFP) (human) (UniProt P32248).
Sequence of UniProt P32248 (P32248 25-378): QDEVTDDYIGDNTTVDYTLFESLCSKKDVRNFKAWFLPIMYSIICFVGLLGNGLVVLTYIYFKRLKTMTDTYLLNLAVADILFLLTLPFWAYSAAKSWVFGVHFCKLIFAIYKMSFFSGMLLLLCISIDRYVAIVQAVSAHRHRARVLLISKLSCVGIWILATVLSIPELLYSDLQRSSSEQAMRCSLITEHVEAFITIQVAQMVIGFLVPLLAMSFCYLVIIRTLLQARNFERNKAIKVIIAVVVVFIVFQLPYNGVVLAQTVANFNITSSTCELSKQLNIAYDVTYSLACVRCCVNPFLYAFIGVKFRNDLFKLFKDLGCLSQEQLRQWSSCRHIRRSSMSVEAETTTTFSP

“CCL19 (recombinant untagged, native mature human CCL19) (from UniProt Q99731 22-98) (ligand)” came in with a Transwell migration of 300-19 pre-B cells stably expressing CCR7 towards graded concentrations of chemokine, 3 h; concentration of maximal migration of 50 nM.
